The results in this text go back to the supplement of paper PMC9112550, “Optimization of the antimicrobial peptide Bac7 by deep mutational scanning” (BMC Biology, 2022).

This data set relates to Escherichia coli TOP10. Kind of data set: shrunken log2 fold change of peptide-encoding DNA abundance (4.5 h post-induction vs induction); higher = less antimicrobial activity (less host growth inhibition). Conditions: time post-induction: 4.5 h; library: site-saturation at positions 5, 18, 19, 20.
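Note: peptides expressed intracellularly from a pBAD plasmid library in pooled LB shake-flask culture, induced with 0.3% L-arabinose, DNA abundance read by NGS, three biological replicates, DESeq2 with apeglm shrinkage.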

Regarding RRIRDRPPRLPRPRPRPEYRPRP, the “shrunken log2 fold change” value was -0.0165.

On to RRIRPRPPRLPRPRPRPMAAPRP, for which the “shrunken log2 fold change” value came out at 0.208.

Turning to RRIRCRPPRLPRPRPRPSADPRP, the “shrunken log2 fold change” value came to 0.0289.

As for RRIRERPPRLPRPRPRPLTQPRP, the “shrunken log2 fold change” value is -0.281.

As for RRIRPRPPRLPRPRPRPEAAPRP, the “shrunken log2 fold change” value was determined as 1.13.

Turning to RRIRDRPPRLPRPRPRPRPMPRP, the “shrunken log2 fold change” value was found to be 0.583.

For the sequence RRIRQRPPRLPRPRPRPNQFPRP, the “shrunken log2 fold change” value amounted to 0.0334.

On to RRIRGRPPRLPRPRPRPTKRPRP, for which the “shrunken log2 fold change” value amounted to 0.533.

For the sequence RRIRLRPPRLPRPRPRPAAGPRP, the “shrunken log2 fold change” value was 0.312.

For RRIRERPPRLPRPRPRPANTPRP, the “shrunken log2 fold change” value worked out at 1.45.

RRIRTRPPRLPRPRPRPSEYPRP: the “shrunken log2 fold change” value is -0.0517.

Regarding RRIRARPPRLPRPRPRPFMKPRP, the “shrunken log2 fold change” value was 0.528.

For RRIRTRPPRLPRPRPRPPCFPRP, the “shrunken log2 fold change” value was determined as 0.153.

As to RRIRNRPPRLPRPRPRPMFSPRP, the “shrunken log2 fold change” value is -0.186.

On to RRIRTRPPRLPRPRPRPNMRPRP, for which the “shrunken log2 fold change” value came to 0.33.

RRIRPRPPRLPRPRPRPLHPPRP: the “shrunken log2 fold change” value was 0.252.

Take RRIRCRPPRLPRPRPRPFLLPRP: the “shrunken log2 fold change” value is -0.569.

For RRIRERPPRLPRPRPRPWKSPRP, the “shrunken log2 fold change” value is -0.0163.

Take RRIRERPPRLPRPRPRPYSEPRP: the “shrunken log2 fold change” value was -0.157.

As to RRIRQRPPRLPRPRPRPQCRPRP, the “shrunken log2 fold change” value worked out at 0.0527.

Turning to RRIRKRPPRLPRPRPRPVSPPRP, the “shrunken log2 fold change” value is 0.286.

In the case of RRIRPRPPRLPRPRPRPFNVPRP, the “shrunken log2 fold change” value was -0.0975.

Take RRIRWRPPRLPRPRPRPPETPRP: the “shrunken log2 fold change” value stood at 0.166.

On to RRIRDRPPRLPRPRPRPFQSPRP, for which the “shrunken log2 fold change” value was 0.0407.

RRIRIRPPRLPRPRPRPMWFPRP: the “shrunken log2 fold change” value was -0.0453.

For the sequence RRIRPRPPRLPRPRPRPTCDPRP, the “shrunken log2 fold change” value was determined as 0.052.

With RRIRLRPPRLPRPRPRPIEDPRP, the “shrunken log2 fold change” value stood at 0.0562.

As to RRIRSRPPRLPRPRPRPYSGPRP, the “shrunken log2 fold change” value was -0.328.

On to RRIRIRPPRLPRPRPRPPIKPRP, for which the “shrunken log2 fold change” value was -0.4.

In the case of RRIRNRPPRLPRPRPRPHREPRP, the “shrunken log2 fold change” value is -0.00211.

As for RRIRNRPPRLPRPRPRPFDCPRP, the “shrunken log2 fold change” value turned out to be 0.0101.

For RRIRHRPPRLPRPRPRPGITPRP, the “shrunken log2 fold change” value is -0.453.

For RRIRLRPPRLPRPRPRPYYSPRP, the “shrunken log2 fold change” value is -0.309.

RRIRRRPPRLPRPRPRPHSAPRP: the “shrunken log2 fold change” value is 0.0905.

In the case of RRIRVRPPRLPRPRPRPMAKPRP, the “shrunken log2 fold change” value turned out to be 0.0605.

Regarding RRIRNRPPRLPRPRPRPYRAPRP, the “shrunken log2 fold change” value is -0.183.

Regarding RRIRLRPPRLPRPRPRPGDDPRP, the “shrunken log2 fold change” value was 0.431.

As for RRIRIRPPRLPRPRPRPEWQPRP, the “shrunken log2 fold change” value is 0.118.

Take RRIRHRPPRLPRPRPRPIAQPRP: the “shrunken log2 fold change” value was -0.0267.

In the case of RRIRKRPPRLPRPRPRPCVYPRP, the “shrunken log2 fold change” value stood at 0.109.

With RRIRDRPPRLPRPRPRPDHAPRP, the “shrunken log2 fold change” value is -0.00822.

Regarding RRIRKRPPRLPRPRPRPAKSPRP, the “shrunken log2 fold change” value worked out at 0.254.

RRIRNRPPRLPRPRPRPKHPPRP: the “shrunken log2 fold change” value turned out to be 0.111.

In the case of RRIRSRPPRLPRPRPRPNTWPRP, the “shrunken log2 fold change” value was -0.637.

With RRIRHRPPRLPRPRPRPSVEPRP, the “shrunken log2 fold change” value is -0.2.

As for RRIRRRPPRLPRPRPRPDIEPRP, the “shrunken log2 fold change” value was determined as 0.172.

Turning to RRIRFRPPRLPRPRPRPNCFPRP, the “shrunken log2 fold change” value is -0.193.

RRIRPRPPRLPRPRPRPECYPRP: the “shrunken log2 fold change” value was determined as 0.044.

For RRIRHRPPRLPRPRPRPRRLPRP, the “shrunken log2 fold change” value is -0.0808.

With RRIRGRPPRLPRPRPRPHRPPRP, the “shrunken log2 fold change” value is -0.00248.

Regarding RRIRLRPPRLPRPRPRPWDKPRP, the “shrunken log2 fold change” value is -0.0731.

Regarding RRIRWRPPRLPRPRPRPLPNPRP, the “shrunken log2 fold change” value is 0.783.

Take RRIRHRPPRLPRPRPRPHRNPRP: the “shrunken log2 fold change” value is -0.117.

Take RRIRLRPPRLPRPRPRPVGDPRP: the “shrunken log2 fold change” value is 0.416.

For the sequence RRIRIRPPRLPRPRPRPSCPPRP, the “shrunken log2 fold change” value is -0.776.

As to RRIRERPPRLPRPRPRPLHVPRP, the “shrunken log2 fold change” value was -0.268.

For RRIRVRPPRLPRPRPRPCVQPRP, the “shrunken log2 fold change” value turned out to be 0.0444.

For RRIRDRPPRLPRPRPRPHCMPRP, the “shrunken log2 fold change” value is -0.24.

Turning to RRIRVRPPRLPRPRPRPYEHPRP, the “shrunken log2 fold change” value was -0.118.

Regarding RRIRRRPPRLPRPRPRPFVIPRP, the “shrunken log2 fold change” value was -0.0863.

As to RRIRMRPPRLPRPRPRPCWFPRP, the “shrunken log2 fold change” value is -0.0997.

For the sequence RRIRPRPPRLPRPRPRPRIRPRP, the “shrunken log2 fold change” value is 0.0752.

On to RRIRVRPPRLPRPRPRPEIVPRP, for which the “shrunken log2 fold change” value was -0.0567.

Consider RRIRERPPRLPRPRPRPTPFPRP, for which the “shrunken log2 fold change” value was -0.211.

Take RRIRPRPPRLPRPRPRPPKQPRP: the “shrunken log2 fold change” value worked out at 0.066.

For RRIRERPPRLPRPRPRPQWPPRP, the “shrunken log2 fold change” value is -0.0675.

Regarding RRIRMRPPRLPRPRPRPFAMPRP, the “shrunken log2 fold change” value was 0.171.

RRIRGRPPRLPRPRPRPKTHPRP: the “shrunken log2 fold change” value was 0.947.

RRIRSRPPRLPRPRPRPTTYPRP: the “shrunken log2 fold change” value was -0.359.

In the case of RRIRFRPPRLPRPRPRPGISPRP, the “shrunken log2 fold change” value is -0.0961.

Turning to RRIRARPPRLPRPRPRPAMAPRP, the “shrunken log2 fold change” value was 0.479.

Consider RRIRLRPPRLPRPRPRPLTQPRP, for which the “shrunken log2 fold change” value was 0.343.

For RRIRKRPPRLPRPRPRPHAYPRP, the “shrunken log2 fold change” value was 0.0163.

RRIRARPPRLPRPRPRPLWEPRP: the “shrunken log2 fold change” value was found to be 0.745.

RRIRKRPPRLPRPRPRPHDWPRP: the “shrunken log2 fold change” value was determined as 0.31.

As to RRIRHRPPRLPRPRPRPYKYPRP, the “shrunken log2 fold change” value was -0.128.

Turning to RRIRCRPPRLPRPRPRPCSNPRP, the “shrunken log2 fold change” value is -0.274.

RRIRIRPPRLPRPRPRPWGCPRP: the “shrunken log2 fold change” value is -0.307.

With RRIRVRPPRLPRPRPRPRLGPRP, the “shrunken log2 fold change” value came to 0.223.

Consider RRIRNRPPRLPRPRPRPYGSPRP, for which the “shrunken log2 fold change” value was -0.0603.

For RRIRRRPPRLPRPRPRPNAQPRP, the “shrunken log2 fold change” value turned out to be 0.287.

With RRIRSRPPRLPRPRPRPTCSPRP, the “shrunken log2 fold change” value was determined as 0.0811.

As for RRIRHRPPRLPRPRPRPRFIPRP, the “shrunken log2 fold change” value was -0.135.

On to RRIRLRPPRLPRPRPRPIIIPRP, for which the “shrunken log2 fold change” value is -0.302.

On to RRIRCRPPRLPRPRPRPPVWPRP, for which the “shrunken log2 fold change” value stood at 0.129.

For RRIRGRPPRLPRPRPRPATDPRP, the “shrunken log2 fold change” value was determined as 0.531.

With RRIRGRPPRLPRPRPRPDTLPRP, the “shrunken log2 fold change” value is 0.169.

Take RRIRMRPPRLPRPRPRPNHQPRP: the “shrunken log2 fold change” value is -0.105.

As for RRIRPRPPRLPRPRPRPSSMPRP, the “shrunken log2 fold change” value was -0.29.

Consider RRIRNRPPRLPRPRPRPNYVPRP, for which the “shrunken log2 fold change” value is -0.0488.

As to RRIRGRPPRLPRPRPRPLVKPRP, the “shrunken log2 fold change” value stood at 0.546.

With RRIRFRPPRLPRPRPRPYCKPRP, the “shrunken log2 fold change” value is -0.243.

RRIRNRPPRLPRPRPRPDAKPRP: the “shrunken log2 fold change” value was found to be 0.162.

In the case of RRIRRRPPRLPRPRPRPLYAPRP, the “shrunken log2 fold change” value turned out to be 0.0633.

For the sequence RRIRGRPPRLPRPRPRPAYLPRP, the “shrunken log2 fold change” value came to 0.235.

For the sequence RRIRHRPPRLPRPRPRPSKCPRP, the “shrunken log2 fold change” value was -1.04.

Turning to RRIRPRPPRLPRPRPRPHANPRP, the “shrunken log2 fold change” value was -0.0736.

Take RRIRTRPPRLPRPRPRPQRWPRP: the “shrunken log2 fold change” value turned out to be 0.137.

Turning to RRIRWRPPRLPRPRPRPEDWPRP, the “shrunken log2 fold change” value came out at 0.947.

For the sequence RRIRPRPPRLPRPRPRPECMPRP, the “shrunken log2 fold change” value turned out to be 0.212.

Turning to RRIRYRPPRLPRPRPRPAIAPRP, the “shrunken log2 fold change” value is 0.0565.

Consider RRIRWRPPRLPRPRPRPDDGPRP, for which the “shrunken log2 fold change” value amounted to 0.305.

With RRIRLRPPRLPRPRPRPQMWPRP, the “shrunken log2 fold change” value is 0.0549.

Consider RRIRWRPPRLPRPRPRPWIAPRP, for which the “shrunken log2 fold change” value was -0.11.

Regarding RRIRWRPPRLPRPRPRPLPYPRP, the “shrunken log2 fold change” value is -0.192.

Take RRIRLRPPRLPRPRPRPKHLPRP: the “shrunken log2 fold change” value is -0.364.

Take RRIRNRPPRLPRPRPRPGKEPRP: the “shrunken log2 fold change” value is -0.311.

With RRIRYRPPRLPRPRPRPNWAPRP, the “shrunken log2 fold change” value was -0.267.

RRIRVRPPRLPRPRPRPFFIPRP: the “shrunken log2 fold change” value was -0.265.

As to RRIRARPPRLPRPRPRPVIFPRP, the “shrunken log2 fold change” value came out at 0.0535.

Take RRIRHRPPRLPRPRPRPWGFPRP: the “shrunken log2 fold change” value was -0.0192.

Turning to RRIRYRPPRLPRPRPRPNSGPRP, the “shrunken log2 fold change” value was -0.01.

For RRIRIRPPRLPRPRPRPFFSPRP, the “shrunken log2 fold change” value was -0.799.

As for RRIRWRPPRLPRPRPRPNKQPRP, the “shrunken log2 fold change” value stood at 0.103.

Take RRIRDRPPRLPRPRPRPCPMPRP: the “shrunken log2 fold change” value is -0.292.

Regarding RRIRHRPPRLPRPRPRPRYLPRP, the “shrunken log2 fold change” value is -0.0229.

RRIRCRPPRLPRPRPRPAVTPRP: the “shrunken log2 fold change” value amounted to 0.0305.

On to RRIRTRPPRLPRPRPRPPFFPRP, for which the “shrunken log2 fold change” value turned out to be 0.253.

Regarding RRIRWRPPRLPRPRPRPRAVPRP, the “shrunken log2 fold change” value is 0.521.

Turning to RRIRERPPRLPRPRPRPSPEPRP, the “shrunken log2 fold change” value was 0.0512.

On to RRIRSRPPRLPRPRPRPTRDPRP, for which the “shrunken log2 fold change” value came out at 0.701.

With RRIRGRPPRLPRPRPRPFPSPRP, the “shrunken log2 fold change” value turned out to be 0.142.

As for RRIRYRPPRLPRPRPRPAQPPRP, the “shrunken log2 fold change” value is -0.0284.

Turning to RRIRDRPPRLPRPRPRPVFTPRP, the “shrunken log2 fold change” value came out at 0.076.

As for RRIRYRPPRLPRPRPRPYAYPRP, the “shrunken log2 fold change” value was -0.948.
